Legend:
[1] = molecular target: human Notch2 on U-87 MG cells (human, UniProt Q04721 26-2471); test: cell-based or functional assay
[2] = molecular target: T1, huNotch2-EGF6-10 (human, UniProt Q04721 219-418); test: SPR BIAcore, separate experiment, substantially as for Table 4
T1 construct: also called human Notch2 EGF6-10
T1 sequence: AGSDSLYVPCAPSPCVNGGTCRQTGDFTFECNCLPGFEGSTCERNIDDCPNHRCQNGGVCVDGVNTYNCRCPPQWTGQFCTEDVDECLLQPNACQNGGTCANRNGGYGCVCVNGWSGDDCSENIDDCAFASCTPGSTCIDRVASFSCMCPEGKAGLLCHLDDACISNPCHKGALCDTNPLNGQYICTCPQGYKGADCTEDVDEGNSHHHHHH
Method: (§1) The binding affinities of the antibodies was determined by BIAcore™ T200 machine. Rabbit antibodies were expressed as chimeric antibodies with rabbit variable domains and human constant domains. Rat antibodies were expressed as chimeric antibodies with rat variable domains and human constant regions. Humanized antibodies were expressed in the human IgG1 backbone. For kinetics measurements, antibodies were captured on research grade protein A chip (GE Healthcare) to achieve approximately 300 RU. Ten-fold serial dilutions of huNotch2-EGF6-10 were injected in HBS-P buffer with additional 3 mM CaCl₂ at 37° C. with a flow rate of 100 μL/min. Association rates (ka) and dissociation rates (kd) were calculated using a 1:1 Langmuir binding model (BIAcore™ T200 Evaluation Software version 2.0). The equilibrium dissociation constant (KD) was calculated as the ratio kd/ka.
In a separate experiment, the binding affinities of the humanized versions of the rat 3107 antibody were determined, substantially as described above.

[3] = molecular target: T1, huNotch2-EGF6-10; test: SPR BIAcore T200, antibody captured on protein A, 37 C
Method: as §1

Sequence of human Notch2 on U-87 MG cells (Q04721 26-2471): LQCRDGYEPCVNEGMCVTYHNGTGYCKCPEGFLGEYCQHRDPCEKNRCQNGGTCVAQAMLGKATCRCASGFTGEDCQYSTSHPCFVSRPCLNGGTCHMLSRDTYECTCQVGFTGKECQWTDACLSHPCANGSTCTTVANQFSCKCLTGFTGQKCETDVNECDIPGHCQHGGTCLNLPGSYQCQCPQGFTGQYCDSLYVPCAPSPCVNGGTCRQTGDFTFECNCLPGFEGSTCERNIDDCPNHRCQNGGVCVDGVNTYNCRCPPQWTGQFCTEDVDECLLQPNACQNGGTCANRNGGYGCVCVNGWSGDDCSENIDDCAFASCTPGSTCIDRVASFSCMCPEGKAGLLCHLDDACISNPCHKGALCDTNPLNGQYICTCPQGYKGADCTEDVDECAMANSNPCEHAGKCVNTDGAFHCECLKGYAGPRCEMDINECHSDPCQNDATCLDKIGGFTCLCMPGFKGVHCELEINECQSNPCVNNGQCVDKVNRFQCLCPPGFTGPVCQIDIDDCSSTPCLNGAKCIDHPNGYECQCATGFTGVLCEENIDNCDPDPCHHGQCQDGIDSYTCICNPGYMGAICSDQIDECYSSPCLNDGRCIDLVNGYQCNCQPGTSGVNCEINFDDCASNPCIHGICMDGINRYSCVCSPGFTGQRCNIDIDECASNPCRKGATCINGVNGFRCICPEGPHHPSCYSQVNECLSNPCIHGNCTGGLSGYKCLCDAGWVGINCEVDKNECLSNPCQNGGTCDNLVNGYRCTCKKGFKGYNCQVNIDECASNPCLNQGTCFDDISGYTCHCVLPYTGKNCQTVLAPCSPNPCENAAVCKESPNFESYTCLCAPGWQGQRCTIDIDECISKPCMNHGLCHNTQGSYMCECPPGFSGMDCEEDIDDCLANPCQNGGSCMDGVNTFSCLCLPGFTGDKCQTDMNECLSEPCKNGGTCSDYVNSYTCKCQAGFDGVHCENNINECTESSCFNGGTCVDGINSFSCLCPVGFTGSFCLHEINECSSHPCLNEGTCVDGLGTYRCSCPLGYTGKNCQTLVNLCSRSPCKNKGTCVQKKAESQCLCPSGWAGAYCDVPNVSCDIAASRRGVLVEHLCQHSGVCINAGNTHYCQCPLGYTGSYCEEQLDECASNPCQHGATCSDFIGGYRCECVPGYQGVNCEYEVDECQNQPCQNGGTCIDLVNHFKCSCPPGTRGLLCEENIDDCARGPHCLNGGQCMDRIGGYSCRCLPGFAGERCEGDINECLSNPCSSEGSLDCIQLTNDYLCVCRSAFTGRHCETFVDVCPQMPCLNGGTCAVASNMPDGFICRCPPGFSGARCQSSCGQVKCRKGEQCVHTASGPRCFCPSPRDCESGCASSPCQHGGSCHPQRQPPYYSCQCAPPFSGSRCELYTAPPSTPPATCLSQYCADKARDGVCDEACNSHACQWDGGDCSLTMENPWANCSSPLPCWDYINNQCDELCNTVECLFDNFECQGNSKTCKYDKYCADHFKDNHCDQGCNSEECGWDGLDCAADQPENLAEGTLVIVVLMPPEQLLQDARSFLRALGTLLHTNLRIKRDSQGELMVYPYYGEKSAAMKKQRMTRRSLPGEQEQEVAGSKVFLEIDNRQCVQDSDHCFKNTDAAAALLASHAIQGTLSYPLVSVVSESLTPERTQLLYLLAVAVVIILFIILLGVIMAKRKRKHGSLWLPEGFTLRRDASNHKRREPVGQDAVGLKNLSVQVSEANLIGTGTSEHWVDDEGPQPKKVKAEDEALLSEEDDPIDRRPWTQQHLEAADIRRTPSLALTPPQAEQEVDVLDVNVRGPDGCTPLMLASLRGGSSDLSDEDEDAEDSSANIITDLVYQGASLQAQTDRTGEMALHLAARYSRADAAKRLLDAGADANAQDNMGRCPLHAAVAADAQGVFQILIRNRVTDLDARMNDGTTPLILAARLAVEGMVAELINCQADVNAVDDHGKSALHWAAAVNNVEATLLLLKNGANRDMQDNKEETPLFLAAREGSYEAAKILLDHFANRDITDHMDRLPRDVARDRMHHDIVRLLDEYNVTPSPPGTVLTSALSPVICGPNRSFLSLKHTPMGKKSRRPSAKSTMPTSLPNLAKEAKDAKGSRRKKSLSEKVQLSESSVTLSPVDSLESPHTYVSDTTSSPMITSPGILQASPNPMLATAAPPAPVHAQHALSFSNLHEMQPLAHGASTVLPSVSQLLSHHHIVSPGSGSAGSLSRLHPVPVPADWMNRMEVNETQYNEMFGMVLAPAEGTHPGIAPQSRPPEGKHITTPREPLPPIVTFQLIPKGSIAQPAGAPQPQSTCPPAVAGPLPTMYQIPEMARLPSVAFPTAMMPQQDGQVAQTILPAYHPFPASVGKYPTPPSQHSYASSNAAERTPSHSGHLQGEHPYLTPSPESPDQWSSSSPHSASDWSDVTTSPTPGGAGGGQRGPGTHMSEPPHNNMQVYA

B1: hu.3107.L1H14 (antibody, V domains shown)
VH: EVQLVQSGAEVKKPGESLKISCKGSGYTFSNYVIHWVRQMPGKGPEWTGYIIPGSGGTKFNEKFKGQATISVDKSSTTAYLQWSSLKASDTAMYYCARDGAGSFTYWGQGTLVTVSS
VL: DVVMTQSPLSLPVTLGQPASISCRSSQSLVHSDGNTYLHWFQQRPGQSPRLLIYRISNRFSGVPDRFSGSGSGTDFTLKISRVEAEDVGVYYCLQSTHFPDTFGGGTKVEIK
notes: also called hu.Notch-3107.L1H14
For B1, the “Jagged1 IC50” value [1] was 6.95 nM, the Kd [2] was 17.5 nM and the koff [2] was 0.00631 s⁻¹. For the same binder, the kon [2] was 360000 M⁻¹ s⁻¹.

B2: hu.3107.L6H14 (antibody, V domains shown)
VH: EVQLVQSGAEVKKPGESLKISCKGSGYTFSNYVIHWVRQMPGKGPEWTGYIIPGSGGTKFNEKFKGQATISVDKSSTTAYLQWSSLKASDTAMYYCARDGAGSFTYWGQGTLVTVSS
VL: DVVMTQSPDSLAVSLGERATINCRSSQSLVHSDGNTYLHWFQQKPGQPPKLLIYRISNRFSGVPDRFSGSGSGTDFTLTISSLQAEDVAVYYCLQSTHFPDTFGGGTKVEIK
notes: also called hu.Notch-3107.L6H14
In the case of B2, the “Jagged1 IC50” value [1] is reported as 6.65 nM, the Kd [2] is reported as 10 nM and the koff [2] is reported as 0.00354 s⁻¹. It also gave a kon [2] of 354000 M⁻¹ s⁻¹.

B3: hu.3107.L1H12 (antibody, V domains shown)
VH: EVQLVQSGAEVKKPGASVKVSCKASGYTFSNYVIHWVRQAPGQGPEWTGYIIPGSGGTKFNEKFKGRATSTVDTSSTTAYMELSRLRSDDTVVYYCARDGAGSFTYWGQGTLVTVSS
VL: DVVMTQSPLSLPVTLGQPASISCRSSQSLVHSDGNTYLHWFQQRPGQSPRLLIYRISNRFSGVPDRFSGSGSGTDFTLKISRVEAEDVGVYYCLQSTHFPDTFGGGTKVEIK
notes: also called hu.Notch-3107.L1H12
With B3 the “Jagged1 IC50” value [1] was 7.85 nM, the Kd [2] was 14.3 nM and the koff [2] was 0.00542 s⁻¹. The kon [2] was 380000 M⁻¹ s⁻¹.

B4: hu.3107.L7H14 (antibody, V domains shown)
VH: EVQLVQSGAEVKKPGESLKISCKGSGYTFSNYVIHWVRQMPGKGPEWTGYIIPGSGGTKFNEKFKGQATISVDKSSTTAYLQWSSLKASDTAMYYCARDGAGSFTYWGQGTLVTVSS
VL: DIVMTQSPDSLAVSLGERATINCRSSQSLVHSDGNTYLHWYQQKPGQPPKLLIYRISNRFSGVPDRFSGSGSGTDFTLTISSLQAEDVAVYYCLQSTHFPDTFGGGTKVEIK
notes: also called hu.Notch-3107.L7H14
With B4 the “Jagged1 IC50” value [1] was 10.5 nM, the Kd [2] was 10.4 nM and the koff [2] was 0.00359 s⁻¹. It also gave a kon [2] of 346000 M⁻¹ s⁻¹.

B5: hu.3107.L1H13 (antibody, V domains shown)
VH: EVQLVQSGAEVKKPGASVKVSCKASGYTFSNYVIHWVRQAPGQGPEWTGYIIPGSGGTKFNEKFKGRATSTVDTSITTAYMELSRLRSDDTVVYYCARDGAGSFTYWGQGTLVTVSS
VL: DVVMTQSPLSLPVTLGQPASISCRSSQSLVHSDGNTYLHWFQQRPGQSPRLLIYRISNRFSGVPDRFSGSGSGTDFTLKISRVEAEDVGVYYCLQSTHFPDTFGGGTKVEIK
notes: also called hu.Notch-3107.L1H13
B5 was tested, and the “Jagged1 IC50” value [1] was 4.92 nM, the Kd [2] was 15.5 nM and the koff [2] was 0.00587 s⁻¹. For the same binder, the kon [2] was 379000 M⁻¹ s⁻¹.

B6: hu.3107.L1H15 (antibody, V domains shown)
VH: EVQLVQSGAEVKKPGESLKISCKGSGYTFSNYVIHWVRQMPGKGPEWTGYIIPGSGGTKFNEKFKGQATISVDKSITTAYLQWSSLKASDTAMYYCARDGAGSFTYWGQGTLVTVSS
VL: DVVMTQSPLSLPVTLGQPASISCRSSQSLVHSDGNTYLHWFQQRPGQSPRLLIYRISNRFSGVPDRFSGSGSGTDFTLKISRVEAEDVGVYYCLQSTHFPDTFGGGTKVEIK
notes: also called hu.Notch-3107.L1H15
B6 was tested, and the “Jagged1 IC50” value [1] was 6.08 nM, the Kd [2] was 17.9 nM and the koff [2] was 0.00634 s⁻¹. The kon [2] was 355000 M⁻¹ s⁻¹.

B7: hu.3107.L7H15 (antibody, V domains shown)
VH: EVQLVQSGAEVKKPGESLKISCKGSGYTFSNYVIHWVRQMPGKGPEWTGYIIPGSGGTKFNEKFKGQATISVDKSITTAYLQWSSLKASDTAMYYCARDGAGSFTYWGQGTLVTVSS
VL: DIVMTQSPDSLAVSLGERATINCRSSQSLVHSDGNTYLHWYQQKPGQPPKLLIYRISNRFSGVPDRFSGSGSGTDFTLTISSLQAEDVAVYYCLQSTHFPDTFGGGTKVEIK
notes: also called hu.Notch-3107.L7H15
For B7, the “Jagged1 IC50” value [1] was 9.16 nM, the Kd [2] was 11.6 nM and the koff [2] was 0.00407 s⁻¹. It also gave a kon [2] of 350000 M⁻¹ s⁻¹.

B8: hu.3107.L6H15 (antibody, V domains shown)
VH: EVQLVQSGAEVKKPGESLKISCKGSGYTFSNYVIHWVRQMPGKGPEWTGYIIPGSGGTKFNEKFKGQATISVDKSITTAYLQWSSLKASDTAMYYCARDGAGSFTYWGQGTLVTVSS
VL: DVVMTQSPDSLAVSLGERATINCRSSQSLVHSDGNTYLHWFQQKPGQPPKLLIYRISNRFSGVPDRFSGSGSGTDFTLTISSLQAEDVAVYYCLQSTHFPDTFGGGTKVEIK
notes: also called hu.Notch-3107.L6H15
For B8, the “Jagged1 IC50” value [1] was 8.03 nM, the Kd [2] was 9.23 nM and the koff [2] was 0.00365 s⁻¹. For the same binder, the kon [2] was 396000 M⁻¹ s⁻¹.

B9: hu1B2.L7H10 (antibody, V domains shown)
VH: EVQLVESGGGLVQPGGSLKLSCAVSGFTFSDFYMEWVRQASGKGLEWVAASRNKANDFSIVYSASVKDRFTISRDDSKSTAYLQMNSLKTEDTAVYYCSRDSGRWGLDAWGQGTLVTVSS
VL: DIQMTQSPSSVSASVGDRVTITCQTSEDIYSGLAWYQQKPGKSPKLLIYGASRLQDGVPSRFSGSGSGTDYTLTISSLQPEDFATYYCQQGFKYPLTFGGGTKVEIK
notes: Human IgG1 backbone
A Kd [3] of 9.94 nM, a koff [3] of 0.00415 s⁻¹ and a kon [3] of 418000 M⁻¹ s⁻¹ were found for B9 in this work.

B10: hu1B2.L7H14 (antibody, V domains shown)
VH: EVQLVESGGGLVQPGGSLKLSCAVSGFTFSDFYMEWVRQASGKGLEWVAASRNKANDFSIVYSASVKDRFTISRDDSKSTLYLQMNSLKTEDTAVYYCSRDSGRWGLDAWGQGTLVTVSS
VL: DIQMTQSPSSVSASVGDRVTITCQTSEDIYSGLAWYQQKPGKSPKLLIYGASRLQDGVPSRFSGSGSGTDYTLTISSLQPEDFATYYCQQGFKYPLTFGGGTKVEIK
notes: Human IgG1 backbone; also called hu.1B2.DFS.H14L7
A Kd [3] of 6.13 nM, a koff [3] of 0.00134 s⁻¹ and a kon [3] of 219000 M⁻¹ s⁻¹ were found for B10 in this work.

B11: hu.3107.L6H12 (antibody, V domains shown)
VH: EVQLVQSGAEVKKPGASVKVSCKASGYTFSNYVIHWVRQAPGQGPEWTGYIIPGSGGTKFNEKFKGRATSTVDTSSTTAYMELSRLRSDDTVVYYCARDGAGSFTYWGQGTLVTVSS
VL: DVVMTQSPDSLAVSLGERATINCRSSQSLVHSDGNTYLHWFQQKPGQPPKLLIYRISNRFSGVPDRFSGSGSGTDFTLTISSLQAEDVAVYYCLQSTHFPDTFGGGTKVEIK
notes: also called hu.Notch-3107.L6H12
In the case of B11, the “Jagged1 IC50” value [1] is reported as 4.71 nM, the Kd [2] is reported as 9.79 nM and the koff [2] is reported as 0.00404 s⁻¹. The kon [2] was 413000 M⁻¹ s⁻¹.

B12: hu.3107.L6H13 (antibody, V domains shown)
VH: EVQLVQSGAEVKKPGASVKVSCKASGYTFSNYVIHWVRQAPGQGPEWTGYIIPGSGGTKFNEKFKGRATSTVDTSITTAYMELSRLRSDDTVVYYCARDGAGSFTYWGQGTLVTVSS
VL: DVVMTQSPDSLAVSLGERATINCRSSQSLVHSDGNTYLHWFQQKPGQPPKLLIYRISNRFSGVPDRFSGSGSGTDFTLTISSLQAEDVAVYYCLQSTHFPDTFGGGTKVEIK
notes: also called hu.Notch-3107.L6H13
B12 was tested, and the “Jagged1 IC50” value [1] was 6.42 nM, the Kd [2] was 9.47 nM and the koff [2] was 0.00424 s⁻¹. The kon [2] was 448000 M⁻¹ s⁻¹.

B13: hu.3107.L7H13 (antibody, V domains shown)
VH: EVQLVQSGAEVKKPGASVKVSCKASGYTFSNYVIHWVRQAPGQGPEWTGYIIPGSGGTKFNEKFKGRATSTVDTSITTAYMELSRLRSDDTVVYYCARDGAGSFTYWGQGTLVTVSS
VL: DIVMTQSPDSLAVSLGERATINCRSSQSLVHSDGNTYLHWYQQKPGQPPKLLIYRISNRFSGVPDRFSGSGSGTDFTLTISSLQAEDVAVYYCLQSTHFPDTFGGGTKVEIK
notes: also called hu.Notch-3107.L7H13
B13 was tested, and the “Jagged1 IC50” value [1] was 5.94 nM, the Kd [2] was 9.94 nM and the koff [2] was 0.00353 s⁻¹. For the same binder, the kon [2] was 355000 M⁻¹ s⁻¹.

B14: hu.3107.L7H12 (antibody, V domains shown)
VH: EVQLVQSGAEVKKPGASVKVSCKASGYTFSNYVIHWVRQAPGQGPEWTGYIIPGSGGTKFNEKFKGRATSTVDTSSTTAYMELSRLRSDDTVVYYCARDGAGSFTYWGQGTLVTVSS
VL: DIVMTQSPDSLAVSLGERATINCRSSQSLVHSDGNTYLHWYQQKPGQPPKLLIYRISNRFSGVPDRFSGSGSGTDFTLTISSLQAEDVAVYYCLQSTHFPDTFGGGTKVEIK
notes: also called hu.Notch-3107.L7H12
B14 was tested, and the “Jagged1 IC50” value [1] was 11 nM, the Kd [2] was 9.54 nM and the koff [2] was 0.00367 s⁻¹. For the same binder, the kon [2] was 384000 M⁻¹ s⁻¹.

— patent publication US20230322958A1 (Genentech, published 2023)
